Patent publication US6300103A, “Anti-microbial proteins” (Syngenta Participants AG, priority 1993, dated 2001)
Where a chain is given by its changes, count along the chain named. Ends that are not written are not given here.

B1: peak 3.1: anti-microbial protein of about 7 kDa from sugar beet leaf intercellular washing fluid, peak 3.1 in FIG. 3 (protein)
chain: ITCGLVASKLAPCIGYLQGAPGPSAGCCGGIKGLNSAAASPADRKTACTCLKSAATSIKGINYGKAASLPRQCGVSVPYAISPNTNCNAIH
B2: peak 3.2: anti-microbial protein of about 7 kDa from sugar beet leaf intercellular washing fluid, peak 3.2 in FIG. 3 (protein)
chain: B1 chain with I58M, V77I

tested on: C. beticola; assay: microtiter plate bioassay of inhibition of fungal growth (absorbance at 620 nm); type: cell-based; conditions: spores of C. beticola in 96 well micro-titre plates, FIGS. 4, 7-8 (10 ug alone, 2 ug each in combination)
Method: The thus obtained IWF is fractionated by cation exchange chromatography on a 10 ml CM-Sepharose column (Pharmacia LKB) pre-equilibrated in starting buffer (20 mM HAc (pH 4.5)). The fractionation is performed at 4° C. at a flow rate of 25 ml/h. Fractions of 3 ml are collected. Proteins not bound to the column are removed by extensive washing of the column with starting buffer. Bound proteins are eluted by applying to the column further starting buffer comprising stepwise increased salt concentrations: viz, 0.1 M NaCg, 0.3 M NACl and 0.5 M NaCl. The absorbance at 280 nm of the eluate is measured, and fractions judged to comprise protein are tested for their anti-fungal activity against C. beticola using the microtiter plate bioassay described previously (PCT Patent Application No. PCT/DK92/00108, Publication No. WO 92/17591, now assigned to Sandoz LTD). […] The inhibition of fungal growth is measured in 96 well micro-titre plates at 620 nm, essentially as described in WO 92/17591. […] The proteins, either alone or in combination with WIN N (which is purified from barley grain or stressed barley leaf as described by Hejgaard et al (FEBS Letters, 307, 389-392 (1992)), and/or a protein having a sequence corresponding to at least one of those given in SEQ ID Nos. 4-6, are incubated with spores of C. beticola. The assay mix (240 ul) contains 100 ul of potato dextrose broth (Difco), 40 ul protein sample (or buffer control) in 100 mM Tris and 20 mM NaCl (pH 8.0) as well as approximately 400 spores in 100 ul water. The micro-titre plates are sealed with tape to avoid evaporation and contamination and subsequently incubated at room temperature on an agitator operated at 200 rpm. The absorbance at 620 nm is measured each day for 8 days and plotted for each concentration of protein vs time.

Molecule | anti-fungal activity (inhibition of fungal growth)
peaks 1 and 2: anti-microbial protein of 2.5-3 kDa (dimer about 5 kDa) from sugar beet, peaks 1 and 2 in FIG. 6 (SGECNMYGRCPPGYCCSKFGYCGVGRAYCG; cysteine pairing not given here; also: dimer about 5 kDa) | significant anti-fungal activity
B1 | significant anti-fungal activity
B2 | significant anti-fungal activity
